Bounds are passed on as bounds.

One assay concerns the target ^CFPCul1–Rbx1 (UniProt Q13616 1-776; P62877 1-108). Nature of the assay: FRET or BRET.
The next assay deals with GST-Rbx1–Cul1 (UniProt P62877 1-108; Q13616 1-776). Nature of the assay: pull-down.
GST-Rbx1–Cul1, sequence (P62877 whole entry, chain 1 of 2): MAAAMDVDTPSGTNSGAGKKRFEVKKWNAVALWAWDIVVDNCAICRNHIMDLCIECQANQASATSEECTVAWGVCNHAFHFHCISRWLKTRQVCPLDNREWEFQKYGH
GST-Rbx1–Cul1, sequence (Q13616 whole entry, chain 2 of 2): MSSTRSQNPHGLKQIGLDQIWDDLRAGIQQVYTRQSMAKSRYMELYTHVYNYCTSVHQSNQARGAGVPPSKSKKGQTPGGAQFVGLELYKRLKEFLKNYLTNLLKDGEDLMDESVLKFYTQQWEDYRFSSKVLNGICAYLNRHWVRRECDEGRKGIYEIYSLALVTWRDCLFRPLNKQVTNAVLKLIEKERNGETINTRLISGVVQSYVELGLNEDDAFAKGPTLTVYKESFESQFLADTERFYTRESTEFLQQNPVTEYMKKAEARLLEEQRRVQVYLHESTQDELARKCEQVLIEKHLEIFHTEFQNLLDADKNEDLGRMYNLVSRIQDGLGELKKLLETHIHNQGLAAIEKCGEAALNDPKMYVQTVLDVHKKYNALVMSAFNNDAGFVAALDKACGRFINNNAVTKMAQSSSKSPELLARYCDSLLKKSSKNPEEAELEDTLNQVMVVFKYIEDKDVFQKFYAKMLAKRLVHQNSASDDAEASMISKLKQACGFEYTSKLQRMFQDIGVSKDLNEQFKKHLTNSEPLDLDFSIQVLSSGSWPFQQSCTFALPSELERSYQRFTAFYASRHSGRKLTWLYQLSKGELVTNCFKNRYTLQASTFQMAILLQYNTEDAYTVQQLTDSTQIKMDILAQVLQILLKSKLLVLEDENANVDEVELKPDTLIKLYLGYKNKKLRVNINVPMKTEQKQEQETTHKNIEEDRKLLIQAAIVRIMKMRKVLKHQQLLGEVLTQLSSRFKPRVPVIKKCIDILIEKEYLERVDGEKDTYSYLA

^CFPCul1–Rbx1, sequence (Q13616 whole entry, chain 1 of 2): as the sequence (Q13616 whole entry, chain 2 of 2) above
^CFPCul1–Rbx1, sequence (P62877 whole entry, chain 2 of 2): as the sequence (P62877 whole entry, chain 1 of 2) above

B1: Cullin-associated and neddylation-dissociated protein 1 (Cand1) (natural protein, UniProt Q86VP6 1-1230, looked up)
chain: MASASYHISNLLEKMTSSDKDFRFMATNDLMTELQKDSIKLDDDSERKVVKMILKLLEDKNGEVQNLAVKCLGPLVSKVKEYQVETIVDTLCTNMLSDKEQLRDISSIGLKTVIGELPPASSGSALAANVCKKITGRLTSAIAKQEDVSVQLEALDIMADMLSRQGGLLVNFHPSILTCLLPQLTSPRLAVRKRTIIALGHLVMSCGNIVFVDLIEHLLSELSKNDSMSTTRTYIQCIAAISRQAGHRIGEYLEKIIPLVVKFCNVDDDELREYCIQAFESFVRRCPKEVYPHVSTIINICLKYLTYDPNYNYDDEDEDENAMDADGGDDDDQGSDDEYSDDDDMSWKVRRAAAKCLDAVVSTRHEMLPEFYKTVSPALISRFKEREENVKADVFHAYLSLLKQTRPVQSWLCDPDAMEQGETPLTMLQSQVPNIVKALHKQMKEKSVKTRQCCFNMLTELVNVLPGALTQHIPVLVPGIIFSLNDKSSSSNLKIDALSCLYVILCNHSPQVFHPHVQALVPPVVACVGDPFYKITSEALLVTQQLVKVIRPLDQPSSFDATPYIKDLFTCTIKRLKAADIDQEVKERAISCMGQIICNLGDNLGSDLPNTLQIFLERLKNEITRLTTVKALTLIAGSPLKIDLRPVLGEGVPILASFLRKNQRALKLGTLSALDILIKNYSDSLTAAMIDAVLDELPPLISESDMHVSQMAISFLTTLAKVYPSSLSKISGSILNELIGLVRSPLLQGGALSAMLDFFQALVVTGTNNLGYMDLLRMLTGPVYSQSTALTHKQSYYSIAKCVAALTRACPKEGPAVVGQFIQDVKNSRSTDSIRLLALLSLGEVGHHIDLSGQLELKSVILEAFSSPSEEVKSAASYALGSISVGNLPEYLPFVLQEITSQPKRQYLLLHSLKEIISSASVVGLKPYVENIWALLLKHCECAEEGTRNVVAECLGKLTLIDPETLLPRLKGYLISGSSYARSSVVTAVKFTISDHPQPIDPLLKNCIGDFLKTLEDPDLNVRRVALVTFNSAAHNKPSLIRDLLDTVLPHLYNETKVRKELIREVEMGPFKHTVDDGLDIRKAAFECMYTLLDSCLDRLDIFEFLNHVEDGLKDHYDIKMLTFLMLVRLSTLCPSAVLQRLDRLVEPLRATCTTKVKANSVKQEFEKQDELKRSAMRAVAALLTIPEAEKSPLMSEFQSQISSNPELAAIFESIQKDSSSTNLESMDTS
Usually Kd stands for the free concentration of one partner at which half of the binding sites on the other are occupied at equilibrium, for simple one-to-one binding. Read a high Kd as a looser complex. Regarding B1, in the assay with ^CFPCul1–Rbx1, the Kd is at most 53 nM.

B2: Cand1^TAMRA (natural protein, UniProt Q86VP6 1-1230, looked up)
chain: MASASYHISNLLEKMTSSDKDFRFMATNDLMTELQKDSIKLDDDSERKVVKMILKLLEDKNGEVQNLAVKCLGPLVSKVKEYQVETIVDTLCTNMLSDKEQLRDISSIGLKTVIGELPPASSGSALAANVCKKITGRLTSAIAKQEDVSVQLEALDIMADMLSRQGGLLVNFHPSILTCLLPQLTSPRLAVRKRTIIALGHLVMSCGNIVFVDLIEHLLSELSKNDSMSTTRTYIQCIAAISRQAGHRIGEYLEKIIPLVVKFCNVDDDELREYCIQAFESFVRRCPKEVYPHVSTIINICLKYLTYDPNYNYDDEDEDENAMDADGGDDDDQGSDDEYSDDDDMSWKVRRAAAKCLDAVVSTRHEMLPEFYKTVSPALISRFKEREENVKADVFHAYLSLLKQTRPVQSWLCDPDAMEQGETPLTMLQSQVPNIVKALHKQMKEKSVKTRQCCFNMLTELVNVLPGALTQHIPVLVPGIIFSLNDKSSSSNLKIDALSCLYVILCNHSPQVFHPHVQALVPPVVACVGDPFYKITSEALLVTQQLVKVIRPLDQPSSFDATPYIKDLFTCTIKRLKAADIDQEVKERAISCMGQIICNLGDNLGSDLPNTLQIFLERLKNEITRLTTVKALTLIAGSPLKIDLRPVLGEGVPILASFLRKNQRALKLGTLSALDILIKNYSDSLTAAMIDAVLDELPPLISESDMHVSQMAISFLTTLAKVYPSSLSKISGSILNELIGLVRSPLLQGGALSAMLDFFQALVVTGTNNLGYMDLLRMLTGPVYSQSTALTHKQSYYSIAKCVAALTRACPKEGPAVVGQFIQDVKNSRSTDSIRLLALLSLGEVGHHIDLSGQLELKSVILEAFSSPSEEVKSAASYALGSISVGNLPEYLPFVLQEITSQPKRQYLLLHSLKEIISSASVVGLKPYVENIWALLLKHCECAEEGTRNVVAECLGKLTLIDPETLLPRLKGYLISGSSYARSSVVTAVKFTISDHPQPIDPLLKNCIGDFLKTLEDPDLNVRRVALVTFNSAAHNKPSLIRDLLDTVLPHLYNETKVRKELIREVEMGPFKHTVDDGLDIRKAAFECMYTLLDSCLDRLDIFEFLNHVEDGLKDHYDIKMLTFLMLVRLSTLCPSAVLQRLDRLVEPLRATCTTKVKANSVKQEFEKQDELKRSAMRAVAALLTIPEAEKSPLMSEFQSQISSNPELAAIFESIQKDSSSTNLESMDTS
modifications: TAMRA (site not stated)
By koff is commonly meant a measure of how fast the partners let go of each other. Higher therefore signals a short-lived complex. B2 gave a koff with GST-Rbx1–Cul1 of 1.2e-05 s⁻¹.
